Reference: article PMC8065580, “A Lipid Bodies-Associated Galactosyl Hydrolase Is Involved in Triacylglycerol Biosynthesis and Galactolipid Turnover in the Unicellular Green Alga Chlamydomonas reinhardtii” (Plants, 2021)

Substrate: O=[N+]([O-])c1ccccc1O[C@@H]1O[C@H](CO)[C@H](O)[C@H](O)[C@H]1O
Assay: purified protein
Assay type: biochemical, Chlamydomonas reinhardtii
Conditions: 30 mM magnesium chloride buffer, pH 7.3, 37 °C, MBP fusion

B1: CrGH (Chlamydomonas reinhardtii) (protein)
chain: MTGSGKPAANKATANGDGEPVRFLKGAAISVWQNSGDDDSNWTRFAKSRWPFRSFGVSAIRGKYNIDKCSDFWNNYERDIKLAADIGSTTFRFSIEWARIEPLRGVFDMEAVHRYHQMLDCMAAHGLVPNATLWHFVHPTWFEQAGGWTKEENIPAFVRFSVKCFEWFKDKITLWATFNEPTCYMFLAFIVGIAPPGRIMDLVTAGRMLSTMLKAHTATYRAIKAAPGGQAAQVGLVSHHITFEPQGTGILYGVSKVLSDWMTYWWGWDVVHHWMLTGEFVWKLPVLGVWQRWQDPAGRPPCDWWGINYYSRGIFSWYLAPSCRESEVMTDMYYPIYPEGLYKCIKRCSEFGIPMYITETGIADARDDRRALMIDSYMKATLRAVAEGCDVRGLYYWTLLDNLEWATGYTMKFGLYAWEPDGSVDRKLKEGSKTLVRYFKTLPDDLAGVRAAARQVQGQLGEDLGVEAALEEEGVTRVAAGGKLVVGEAAGKGGEAEGRKAVGMVAIG
notes: full-length CDS (1527-bp ORF, about 508 residues) in pMAL-c5x, MBP fusion, about 98 kDa, E. coli BL21(DE3), amylose resin; tag cleavage not mentioned; GH family 1, motifs TFNEP and ITETG
In the case of B1, the Km is reported as 13.98 µM and the kcat is reported as 3.62 s⁻¹.
